69 sequences from the domain aggregation screens of Martell et al. (2025) can be followed below.

The series in a line: soluble fraction after stress (log2 fold change); higher = more stays soluble; pooled small domains, quantitative proteomics. To be noted: stress: pH 4. The method, boiled down: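 Custom libraries of small protein domains were pooled and measured with high-throughput quantitative proteomics after pH 4 stress. The read-out is the fold change in the amount of each domain that stays soluble after the acid stress, taken as a measure of aggregation propensity. Fold changes are on a log2 scale, and higher values mean more of the domain stayed soluble.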
For the sequence “HMTKGFSIQDISLSKSTMTFLQQNKITDLASLLSMSKSQIEGMKGFKPKMIQEIEKNLDKVGLVLAQD”, the “soluble fraction (log2)” value was -0.228.

Turning to “HMTKGVKVEIGTEEASVDLYVVMEYGTPIQKAAYDAQESVRKAIETMTNLHVVRVDVHVQGVSF”, the “soluble fraction (log2)” value is at least 0.43.

As for “HMTKGVWHTVKKGENLYRISLYYEVPQQEIKKANKIETENIVVGQKLFIPNTTKKSPIFALTP”, the “soluble fraction (log2)” value was -0.0478.

“HMTKIDYSINQIYSLRNIENITIVLKDKRSFTGKILKIYWQNGSKIILFTTETRNYKFKEYEISEIYKS”: the “soluble fraction (log2)” value was -0.706.

As for “HMTKIEYTEQEFNDFIQAYKNNRKMFPEDYIVKTQVVFINKGFSKSQADMIIAQIETRLRLQGE”, the “soluble fraction (log2)” value was -0.378.

Consider “HMTKIKAIFFDIDGTIRSFKTKTIPENTANTLKKLKEQGIKIFIATGRAPFHTTFLNDLLDFKFDGYITIN”, for which the “soluble fraction (log2)” value was -0.0405.

Regarding “HMTKKSLFNQYLDDQKRLDIVTLQKAELVDLHKLADELNIDQYNQLKKNELIFKILQSNPSE”, the “soluble fraction (log2)” value is -0.361.

Turning to “HMTKNEFLQGLKEELEGRVTHSAIQENIRYYDDYISQEVLKGSTEEEVTESLGGPRIIARTIVDAAYD”, the “soluble fraction (log2)” value is -2.29.

With “HMTKPLHELLSQREFQVFTQLAAGRSVGEIAQQLSLSSNTVSTYRARILEKTGTRNDVELALYAIRR”, the “soluble fraction (log2)” value was -0.231.

For “HMTKPTLMEVEIKGAIQNPGVYTLKRNSSISKLIKMSGPLLENADTSSISFTHILQDKDVVVIPEIK”, the “soluble fraction (log2)” value was -0.177.

“HMTKQEYLNQLKNELVKQGVADAEDVVTEYEQHFAFKLADGFGEEEIAKKLGDPAAIASQFVG”: the “soluble fraction (log2)” value is -1.16.

As for “HMTKQMELLAQGAAKLSVDLNQRQLDQLQTYYRELVDWNQRMNLTAITQYEEVQVKHFLDSL”, the “soluble fraction (log2)” value is -0.294.

“HMTKRKNTEFRQQQIIEAAAKLIFKYGSEHLTVKRIAAQVGISEAAIYRHFTSKKSILSFLLSHIEE”: the “soluble fraction (log2)” value was -0.317.

Regarding “HMTKRTVKSVARKIADFNRERHRMPTYEEMLTLLAVRSKSVVHFWMNKLLQEGILEKDESGHLTFV”, the “soluble fraction (log2)” value worked out at 0.14.

For the sequence “HMTKSSAYLSAEKLINKKQYSDAIVKLNDALVTDSKNADIYNYLGFSHRKLGKMEDAAFFYNKALE”, the “soluble fraction (log2)” value was -0.165.

As for “HMTLDDSFYQKADEIIANHTKEERSLIPIIQDIQAEYRYLPPELLTYVAKEIGITDARAYSVASFYENFS”, the “soluble fraction (log2)” value is -1.21.

On to “HMTLDEDYFYYTLKAKEGYYRLYKKLGVDRKIIDSLNPNLKEMGLQVGMVIRVPKSQTSDLSVKNSLLVE”, for which the “soluble fraction (log2)” value is -0.61.

Turning to “HMTLHDLFPQAVEFVSEKEMISTAELQRKLMISYNSAAKIIDQLLHVDFIQKSESAGKYSVLIK”, the “soluble fraction (log2)” value is -0.486.

Turning to “HMTLNTQLFTWKKGVRVGEDDQGNIYYRTKDDKRRWVIFTGETEATKVSPDWHGWLHRTWATPPNK”, the “soluble fraction (log2)” value is -0.14.

As for “HMTLPGQDFIRASQLKELIAKYDKQYYEEGVSDISDAEYDRLYEEYLEFENKYPELKDMADAPTKRV”, the “soluble fraction (log2)” value was -0.661.

Regarding “HMTLREQISALIKQGKLTQAKLARETGVNGGALSAWINGKYTGNVETVEEPIKHWMALNERK”, the “soluble fraction (log2)” value was at least 0.43.

In the case of “HMTLSVRQRMSQIINKIDVSNFTDFTKLFDINEGRLGVAVTFLAILELLKDTMIDVIQNEEFAPLHIKVSS”, the “soluble fraction (log2)” value is -0.339.

“HMTMIIQLDKNITQEQRQFLVEELNRLSISPNFVSTQFTNYIVGIPKKEFDIRLIGNLPGIADIHFV”: the “soluble fraction (log2)” value was -0.269.

For “HMTMKVTADILNMRSEASTNSDIVTKLKKDDELKVIEETKDDDGVTWVKVDFNGQVGFVSKEFLG”, the “soluble fraction (log2)” value is -0.623.

Regarding “HMTMLLEYNVSRSSKWMNKTIMDAEIPDDILIVMIKRNGQVIVPKGSTEILENDILVLSGNNLNEVALG”, the “soluble fraction (log2)” value was -1.46.

For the sequence “HMTMNYYDILSIKRDATLEEIQKAYKEKSFQFHPDFNKGISDDSMFRIIKEAYETLSDTEKRNQYDASLNK”, the “soluble fraction (log2)” value is -0.134.

“HMTMQTAEQESRLEQKLIDLSVGIDRFEGYSRPHGQLIASIADRIGTRLGMAAHDRFYMQQAAL”: the “soluble fraction (log2)” value was -0.0547.

Regarding “HMTNADRFIGEEAMVIKKIDDINNDGQVKIAGQVWSAVSEDKSPLEEGTIVKVIAIRGVKLVVEPVS”, the “soluble fraction (log2)” value is 0.0967.

With “HMTNALDMMKTMDSDAYTKYQKISKESSNEDRQLNELKYITNWYAGAVKKNPSMVDDYEKQKEADS”, the “soluble fraction (log2)” value turned out to be 0.162.

In the case of “HMTNELTEIFNSIRLTKKQKELLQSNYLSLRETYFLQGKTAFNLKFKNIAGLGKSTKKVLLEFFEESIE”, the “soluble fraction (log2)” value is -0.499.

Turning to “HMTNIDIEKSIKNTITANYDDVLNYHNEDDNKTFASGDSRYSFDYDEKTKTLIVFTNSKVDAVFVDGIKKK”, the “soluble fraction (log2)” value worked out at 0.255.

As for “HMTNISDYILEEYYKNVYPNDLNTKRIVIPNKYEEYAGKYTYITIARMVTYEHDAKKALKVLHQQAT”, the “soluble fraction (log2)” value is -0.346.

With “HMTNKYSSLVIGTVKTIMEEDQYKNLMGPPLKKEIIKQVDKFTNALPIEFDQNDKDFYVKKILINL”, the “soluble fraction (log2)” value is -0.299.

On to “HMTNLKALRESKGVSQQTVADYLGITRQAYGNYETGKRQADYAALLRLAAFFGVSVDALLQP”, for which the “soluble fraction (log2)” value was 0.102.

As for “HMTNNDIIRRVRYLFNFSDKQVIELFKLANETVSIEHVSGWLKKEEDPTLIEISDRDLAVFLNGLII”, the “soluble fraction (log2)” value was -1.65.

As for “HMTNQEFNEVFKLLLAAYPNTKDKESVATIYFLTIANELTKKEFAEAVVKILKTRKSGFIPQPAEILEVAK”, the “soluble fraction (log2)” value is -0.208.

As to “HMTNSAGIERFLASGAIDGVGPAMARRIVEHFGTEALRIIESVPHRLREISGIGPKTAEKIASSYMRQ”, the “soluble fraction (log2)” value is -0.618.

In the case of “HMTNTDALINRAAKVVEEINPDKNTGRVSIDGDLWRAKSSSGELIEQNKQVIVISIESTIVTVKI”, the “soluble fraction (log2)” value is -0.317.

As for “HMTNTWNNIVERNDLFFKKFTNTPFNGKIETYWPNGNLKETGIITDGKKDNLWEYYYENGNPKEVEF”, the “soluble fraction (log2)” value is -0.0781.

Regarding “HMTNVFSIIGKKALVIKDIDPIHSSGQIKLNGEVWSAETENDEIIKEGSEVEVLKINGVKAIVKLV”, the “soluble fraction (log2)” value was determined as 0.149.

For the sequence “HMTNVIPKAMAPFNGSTIIADGIKNIKDHIDNLYITVGYKGATLSEHVINKGVSAVFNTTGKGNAWWVYN”, the “soluble fraction (log2)” value is 0.00444.

On to “HMTNVLSEQESKLLERMNKAGLNAEITVKKAAQILNLSESAARNVLNRLVGKGYLTVDTSRLPFLFQR”, for which the “soluble fraction (log2)” value worked out at 0.122.

Consider “HMTNVVSKNKAKEIAMNIINDTVLQGQTAATFKEIVKANGVYVVKIEIQGQEYTSYITKDGKIVFPYGVEV”, for which the “soluble fraction (log2)” value was -0.661.

On to “HMTNYSFIVNENFNNKRIDQVVANHYPKISRTKVNKIIKNNLLKLNGSTFNDPSAKVKLGDQIEFENL”, for which the “soluble fraction (log2)” value amounted to 0.00451.

Turning to “HMTPAKQVSAKAERWIDQLGSSDWEKREEAAAELKKLGGAAKSALEKALKNADPEVASKAEELLEALES”, the “soluble fraction (log2)” value amounted to 0.213.

“HMTPATVVIPKVAGQTVAEAKETLKNANFEIGEEKDESSDTVEEGRVIRTDPESGTNRKEGTKINLIVSS”: the “soluble fraction (log2)” value was found to be 0.0687.

On to “HMTPFVINVDRHGAVIINEKTVDIDEAVVLARQERSQGKSILLAGDKKAPYEAIIRVLDALKQAG”, for which the “soluble fraction (log2)” value is -0.464.

Take “HMTPNATWQDDAQNLLRDLIQHQPVLVQISAAKRLRDQAEQISRITGGETVTREHVEAAGHALGMGVT”: the “soluble fraction (log2)” value was -0.0443.

For the sequence “HMTPNRDDEHLQSLRDYYASNRRIPSLQRIAALLGFSSRSAAVKLMGRLADEGFVERTVDDDAWIPGSRFF”, the “soluble fraction (log2)” value was -0.194.

Regarding “HMTPQDYEYLRKLLKDQSGLDLSVDKQYLLESRLVPLSRKAGLAGIPELVQKMKAGSASLTAQVVEAMTT”, the “soluble fraction (log2)” value came to 0.07.

Consider “HMTPVFGEEETVLQAAVRGIISDTDQWTMEAEAKSMLNQLGFSDYEEKMAHMSGGQKKRVALVNALLTP”, for which the “soluble fraction (log2)” value was -0.555.

Consider “HMTQDFEPGGQVFSRGEWLTIIRVNKSNGAVSSVTTPNYSFLGYSGTMKVTPDRITDYKAPSAEEAAVAS”, for which the “soluble fraction (log2)” value was -0.0277.

As for “HMTQGRVTGDGVNVRSQPNTDSAILTRVSTGKVVELISLKDNWYNVVVNGTKGYIRADYVSPYDG”, the “soluble fraction (log2)” value was determined as 0.00816.

As to “HMTQLPEVPVERGMVLEEVQSGWVGAVTRVEKSGGMHVVALEDRRGKSRSFRLGFGFLLEGQPIRLMPPAP”, the “soluble fraction (log2)” value was -0.882.

As for “HMTRAETPMAFIRAMVEAYTERGLDPNQALRKAQITPSQLKSTNARVTTLQMEWMSETAMREL”, the “soluble fraction (log2)” value was -0.464.

On to “HMTRDAQLAALERLMDDPSPVVRKAVLKGVQAAGTEGLLWLQQLSKNQTLGPYALALLTELR”, for which the “soluble fraction (log2)” value was -0.0392.

For “HMTRNGTVTFFNHDKGYGFIKDVLTQESVFVHINSLSEPINEQNKVSFEIEMGPRGSNAINVKLI”, the “soluble fraction (log2)” value is -1.86.

Regarding “HMTRTEYMAQLEKYLKKLPHKEFQEAITFFNEYFDEAGPEKETAIMEELGSPKEAASELITNILNRHI”, the “soluble fraction (log2)” value is -0.101.

Take “HMTRTISKVAKELAINIETVRFYERRGLIEQPPKPELGYRHYPDETVNRIRFIKRAQELGFTLEEIANLLS”: the “soluble fraction (log2)” value was -1.21.

Consider “HMTRVDALDQLAAIRFSSHIFAEDQDLRMVVVDGQRIGEGDIVRDEIRLEQITETGVIFEYQGERFPIDV”, for which the “soluble fraction (log2)” value was -2.21.

As to “HMTRYQHLAMLLEKRIAQGLYRNGERLPSVRSLSAEHGVSISTVQQAYYLLEQKQLIIPQSRSGYYVAPH”, the “soluble fraction (log2)” value was -0.378.

For “HMTSEVPVGSNVRIRASTLAGERDFEGTMLPPAGEGLTTLKLVNGYNLSYPSKDVLDIEFLGGAGE”, the “soluble fraction (log2)” value is -0.367.

As to “HMTSHPTHTILDGKVHVFMRDGSPFWWGGFHFKGKYLRTSTKQKNLDSAKTIAQQWYFQKQTEIASGE”, the “soluble fraction (log2)” value is -0.0801.

With “HMTSKVTVLAVNGRITVSGKEQDETVSVYDTGGRLLYQGESDVINVPRKAMYIVTVSRKSYKVIV”, the “soluble fraction (log2)” value was 0.00912.

“HMTSLAGIERFLASGAIAGVGEAMAHRLVQKFGKETLEIIEKKPSRLTEVAGVGKKTAAKIHASYMEK”: the “soluble fraction (log2)” value stood at 0.0893.

“HMTSLGLEGLVNTTAIATSDLRPSGWALAGERKIFVVSEGEFIDNGDKIRILTVDGNRIVVRKETNK”: the “soluble fraction (log2)” value is -0.189.

As to “HMTSLTSDEEQIINVLRAEESVYINALATKSKIPLQKLLGLLIQLEFKGLIHSLPGSHYKIV”, the “soluble fraction (log2)” value is -0.473.

In the case of “HMTSNIIIVPNVVGMTKEQATAALAAAGLNIKLSGVETTDTAAVAVKQKPSANTKVEEGSVVTVEFDLK”, the “soluble fraction (log2)” value is -1.35.

For “HMTSPKSRIVSALLASPSRPEELAMRLGEDILTLMRTLTDFEASGIIQRLPDGRYTPTREYHLGLVDK”, the “soluble fraction (log2)” value is -0.534.
